Assay results from PMC10638201, “Application of electrospun chitosan-based nanofibers as immobilization matrix for biomolecules” (Applied Microbiology and Biotechnology, 2023).

Molecular target: 6xHis-eugenol-oxidase-StrepTag-II (recombinant eugenol oxidase from Rhodococcus jostii) (Rhodococcus sp. RHA1)
Experiment: SEC; pure EUGO on Superdex 200 10/300 GL (AKTA Pure), 100 uL loaded, 0.5 mL/min, running buffer 50 mM Tris-Base pH 8 with 150 mM NaCl; size estimated from a protein standard mix (15-600 kDa)

stoichiometry N: 2
Substance: 6xHis-eugenol-oxidase-StrepTag-II (recombinant eugenol oxidase from Rhodococcus jostii) (enzyme)
